According to paper PMC9481871, “Anti-TGF-β1 aptamer enhances therapeutic effect of tyrosine kinase inhibitor, gefitinib, on non-small cell lung cancer in xenograft model”:

Legend:
Assay in all cases: SPR; 500 nM protein; aptamer immobilized; SPR (Biacore): 145 mM NaCl, 5.4 mM KCl, 0.8 mM MgCl2, 1.8 mM CaCl2, 20 mM Tris-HCl pH 7.6, 0.05% Tween 20; temperature not given
Conditions in all cases: protein: recombinant; chain copies: 2
human TGF-β3 = target: T1, human TGF-β3 (Homo sapiens, UniProt P10600 301-412)
T1 sequence: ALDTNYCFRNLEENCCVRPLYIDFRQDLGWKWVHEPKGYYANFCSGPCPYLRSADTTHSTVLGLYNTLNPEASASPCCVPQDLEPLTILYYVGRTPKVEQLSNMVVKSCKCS

human TGF-β1 (active) = human TGF-β1 (active) (Homo sapiens, UniProt P01137 279-390)
human TGF-β1 (active), sequence (P01137 279-390): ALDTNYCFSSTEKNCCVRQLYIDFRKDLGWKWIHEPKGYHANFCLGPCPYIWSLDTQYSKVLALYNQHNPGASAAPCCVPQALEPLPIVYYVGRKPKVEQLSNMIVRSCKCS

mouse TGF-β1 (active) = mouse TGF-β1 (active) (Mus musculus, UniProt P04202 279-390)
mouse TGF-β1 (active), sequence (P04202 279-390): as the sequence (P01137 279-390) above, with A75S counted along it

human TGF-β2 = target: T2, human TGF-β2 (Homo sapiens, UniProt P61812 303-414)
T2 sequence: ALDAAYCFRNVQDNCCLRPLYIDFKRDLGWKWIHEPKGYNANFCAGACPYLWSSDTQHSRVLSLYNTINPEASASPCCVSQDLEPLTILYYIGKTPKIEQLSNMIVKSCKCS

B1: APT-β1 (structured_RNA)
RNA: GGCAUAAGGGAGGGGAGACUUGUGGAGGGCAAG
modifications: 2'-fluoro pyrimidines (SELEX with 2'-F-CTP and 2'-F-UTP); parent of APT-β1-OMe without 2'-OMe
- binding result (human TGF-β3): no binding
- binding result (human TGF-β1 (active)): binds
- binding result (mouse TGF-β1 (active)): binds
- binding result (human TGF-β2): no binding
